Experimental data as given in patent US12599665B2, “Gene fusions for control of genetically modified cells” (A2 Biotherapeutics, Inc., priority 2020, dated 2026).

B1: C150: truncated BID (tBID), a potent apoptosis inducer; construct A tBID lacking a LBD (protein, UniProt P55957 61-195, looked up)
BH3-interacting domain death …: GNRSSHSRLGRIEADSESQEDIIRNIARHLAQVGDSMDRSIPPGLVNGLALQLRNTSRSEEDRNRDLATALEQLLQAYPRDMEKEKTMLVLALLLAKKVASHTPSLLRDVFHTTVNFINQNLRTYVRSLARNGMD
modifications: BH3-interacting domain death agonist p15
B2: ESR1-C: fusion protein SEQ ID NO: 6; ESR1 LBD fused to N-terminus of tBID truncation C (protein)
chain: MKKNSLALSLTADQMVSALLDAEPPILYSEYDPTRPFSEASMMGLLTNLADRELVHMINWAKRVPGFVDLTLHDQVHLLECAWLEILMIGLVWRSMEHPGKLLFAPNLLLDRNQGKCVEGMVEIFDMLLATSSRFRMMNLQGEEFVCLKSIILLNSGVYTFLSSTLKSLEEKDHIHRVLDKITDTLIHLMAKAGLTLQQQHQRLAQLLLILSHIRHMSNKGMEHLYSMKCKNVVPLYDLLLEMLDAHRLHAPTGSSQEDIIRNIARHLAQVGDSMDRSIPPGLVNGLALQLRNTSRSEEDRNRDLATALEQLLQAYPRDMEKEKTMLVLALLLAKKVASHTP
modifications: tBID fusion protein C3443 (ESR1-C)
B3: ESR1-D: fusion protein SEQ ID NO: 4; ESR1 LBD fused to N-terminus of tBID with Bid α3, α6 and α7 helices (protein)
chain: MKKNSLALSLTADQMVSALLDAEPPILYSEYDPTRPFSEASMMGLLTNLADRELVHMINWAKRVPGFVDLTLHDQVHLLECAWLEILMIGLVWRSMEHPGKLLFAPNLLLDRNQGKCVEGMVEIFDMLLATSSRFRMMNLQGEEFVCLKSIILLNSGVYTFLSSTLKSLEEKDHIHRVLDKITDTLIHLMAKAGLTLQQQHQRLAQLLLILSHIRHMSNKGMEHLYSMKCKNVVPLYDLLLEMLDAHRLHAPTGSSQEDIIRNIARHLAQVGDSMDRSIPPGEKTMLVLALLLAKKVASHTPSLLRDVFHTTVNFINQNL
modifications: tBID fusion protein C3445 (ESR1-D)
notes: ESR1 LBD fused to N-terminus of tBID with Bid α3, α6 and α7 helices
B4: C-ESR1: fusion protein SEQ ID NO: 7; tBID helices α3, α4, α5 and α6 fused to the N-terminus of ESR1 LBD (protein)
chain: MSQEDIIRNIARHLAQVGDSMDRSIPPGLVNGLALQLRNTSRSEEDRNRDLATALEQLLQAYPRDMEKEKTMLVLALLLAKKVASHTPGSKKNSLALSLTADQMVSALLDAEPPILYSEYDPTRPFSEASMMGLLTNLADRELVHMINWAKRVPGFVDLTLHDQVHLLECAWLEILMIGLVWRSMEHPGKLLFAPNLLLDRNQGKCVEGMVEIFDMLLATSSRFRMMNLQGEEFVCLKSIILLNSGVYTFLSSTLKSLEEKDHIHRVLDKITDTLIHLMAKAGLTLQQQHQRLAQLLLILSHIRHMSNKGMEHLYSMKCKNVVPLYDLLLEMLDAHRLHAPT
modifications: tBID fusion protein C3452 (C-ESR1)
notes: tBID helices α3, α4, α5 and α6 fused to the N-terminus of ESR1 LBD
B5: D-ESR1: fusion protein SEQ ID NO: 5; tBID helices α3, α6 and α7 fused to the N-terminus of ESR1 LBD (protein)
chain: SQEDIIRNIARHLAQVGDSMDRSIPPGEKTMLVLALLLAKKVASHTPSLLRDVFHTTVNFINQNLGSKKNSLALSLTADQMVSALLDAEPPILYSEYDPTRPFSEASMMGLLTNLADRELVHMINWAKRVPGFVDLTLHDQVHLLECAWLEILMIGLVWRSMEHPGKLLFAPNLLLDRNQGKCVEGMVEIFDMLLATSSRFRMMNLQGEEFVCLKSIILLNSGVYTFLSSTLKSLEEKDHIHRVLDKITDTLIHLMAKAGLTLQQQHQRLAQLLLILSHIRHMSNKGMEHLYSMKCKNVVPLYDLLLEMLDAHRLHAPT
modifications: tBID fusion protein C3454 (D-ESR1)
notes: tBID helices α3, α6 and α7 fused to the N-terminus of ESR1 LBD
B6: full length Bid: full length Bid expressed alone in HEK293T cells (protein, UniProt P55957 1-195, looked up)
chain: MDCEVNNGSSLRDECITNLLVFGFLQSCSDNSFRRELDALGHELPVLAPQWEGYDELQTDGNRSSHSRLGRIEADSESQEDIIRNIARHLAQVGDSMDRSIPPGLVNGLALQLRNTSRSEEDRNRDLATALEQLLQAYPRDMEKEKTMLVLALLLAKKVASHTPSLLRDVFHTTVNFINQNLRTYVRSLARNGMD
modifications: full-length
notes: full length Bid expressed alone in HEK293T cells

What was measured:
[1] = test system: HEK293T cells; test: Annexin V apoptosis assay in transfected HEK293T cells +/- 4OHT; format: cell-based, Human; details: for cell death observed: 1 uM 4OHT or solvent control; for inducibility of apoptosis with 4OHT: 200 nM or 1 uM 4OHT, ~18-24 hours
Method: Human Embryonic Kidney (HEK) 293T cells were transfected with 1 ug per 1E6 cells using Lipofectamine 3000 and incubated in DMEM+10% FBS+1% Pen/Strep media for 4 hours before adding 1 uM 4-hydroxytamoxifen (+4OHT) or solvent control (No 4OHT). The cells were incubated with 4OHT for 18-24 hours. The cells were then stained with Annexin V to detect apoptotic cells, as well as DAPI to detect dead cells.
HEK293T cells were transfected with varying amounts of DNA of a vector control (pLenti), with construct A tBID (lacking a LBD, C150, see FIG. 5B), or with C-ESR1 or D-ESR1 (FIG. 10, bottom), and assayed for apoptosis using either 200 nM OHT or 1 μM 4OHT.
To determine the effect of amount of DNA as well as 4OHT concentration on apoptosis induction, we titrated both the amount of DNA (2, 3, or 6 ug DNA per 1E6 cells) and the concentration of 4OHT. 500,000 cells HEK293T cells were plated in a 24-well plate. ˜2 hours after plating, appropriate amounts of DNA were transfected using Lipofectamine 3000 and incubated for 4 hours. Either ethanol solvent control, 200 nM 4OHT, or 1 uM 4OHT was added to the transfected cells then incubated for ˜18-24 hours. The cells were then stained as in Example 4. Intriguingly, C-ESR1 was not inducible in HEK293 Ts, unlike in Jurkat cells (Example 6, FIGS. 7 and 11A-B).

[2] = test system: Jurkat cells; test: Annexin V / PI apoptosis assay in transfected Jurkat cells +/- 4OHT; format: cell-based; details: for background cell death / induction of apoptosis with 4OHT: 2 ug DNA per 1E6 cells, 20 hours; for background cell death: ethanol solvent control; for inducible apoptosis with 4OHT / background apoptosis / killing: 1 ug DNA per 1E6 cells; for inducible apoptosis with 4OHT: 1 uM 4OHT vs solvent control, 18-24 hrs; for background apoptosis / killing: solvent control; for induction of apoptosis with 4OHT: 200 nM or 1 uM 4OHT
Method: Jurkat immortalized T lymphocytes were transfected with 1 ug per 1E6 cells using Neon electroporation and incubated in RPMI+20% FBS+0.1% Pen/Strep media for 4 hours before adding 1 uM 4-hydroxytamoxifen (+4OHT) or solvent control (No 4OHT). The cells were incubated with 4OHT for 18-24 hours. The cells were then stained with Annexin V to detect apoptotic cells, as well as propidium iodide (PI) to detect dead cells.
Jurkat cells were transfected with 1 ug of DNA per 1E6 cells using Neon electroporation, treated +/−4OHT for 18-24 hrs, and stained with Annexin V to detect apoptotic cells, as well as PI to detect dead cells (FIG. 5A).
One possibility is that the BID α3 and α6 helices are necessary and sufficient for tBID function. Therefore, we made various truncations that included α3 and α6, as well as various other helices. Jurkat cells were transfected with 1 ug DNA per 1E6 cells, treated with 4OHT or solvent control, then stained as in Example 4. […] One exception was the ESR-D tBID fusion construct, which has the Bid α3, α6 and α7 helices (FIG. 6). 0.3 uM staurosporine (STP) and DMSO solvent control were included as controls.
Jurkat cells were transfected with 1 ug DNA per 1E6 cells, treated with 4OHT or solvent control, then stained as in Example 4. The fold change in apoptosis upon 4OHT addition was determined by dividing the percent Annexin V positive cells treated with 4OHT by the percent Annexin V positive cells treated with a solvent control (FIG. 8). The fold change was calculated from one experiment. As electroporation of empty vector always results in some background death of cells, percent Annexin V positive cells of pLenti was used as the background and subtracted from total percentage to obtain “background subtracted” fold change values.
To determine the effect of 4OHT concentration on apoptosis induction in Jurkat cells, Jurkat cells were transfected with 2 ug DNA per 1E6 cells. 4 hours post-transfection, either ethanol solvent control, 200 nM 4OHT, or 1 uM 4OHT was added to the transfected cells then incubated for 20 hours. The cells were then stained with Annexin V and PI to measure cell death.

[3] = test system: primary T cells; test: Annexin V / PI apoptosis assay in transduced primary T cells +/- 4OHT; format: cell-based; details: lentiviral transduction, 20 hours
Method: To characterize tBID-ESR1 safety switch function in primary T cells, D504C cells were transduced with lentiviral constructs containing either C-ESR1 or D-ESR1. The cells were maintained and expanded in media containing 300 IU/mL IL-2. To induce apoptosis, 1E6 cells were resuspended in 1 mL of LymphoONE media containing 1% human serum and 1 uM 4OHT. As a solvent control, same volume of ethanol was added to the cells. 20 hours after 4OHT addition, cells were stained with Annexin V and PI to measure cell death as described in Example 9.

[4] = test system: primary T cells; test: Caspase-3/7 Green time course of 4OHT-mediated death in transduced primary T cells; format: cell-based
Method: To characterize tamoxifen-induced killing activity in transfected Jurkat cells over time, Jurkat cells were transfected with 1 ug DNA per 1 E6 cells as described previously above. 24 hours post-transfection, Jurkat cells were harvested and resuspended in complete RPMI media containing 10% FBS, 1% Pen/Strep, and 5 uM Caspase-3/7 Green Reagent (Essen Bioscience 4440). The resuspended cells were plated onto poly-L-ornithine treated 384-well plates and left at room temperature for 30 minutes. Then, RPMI+10% FBS+1% Pen/Strep+5 uM Caspase-3/7 Green Reagent containing appropriate 2×4OHT or EtOH was added to the cells. Induction of apoptosis was measured using the Caspase-3/7 dye, which couples caspase-3/7 recognition motif with a DNA intercalating dye. Cells turn green if and only if caspase-3/7-mediated apoptosis occurs. The cells were imaged using the IncuCyte S3 Live-Cell Analysis System.
Primary T cells transduced with D-ESR1 were prepared similarly to Jurkat cells in Example 9 and 4OHT-mediated death was measured using the Caspase-3/7 Green Reagent as described in Example 9.

[5] = HEK293T, 1 ug per 1E6 cells, 18-24 hours
[6] = HEK293T, 2, 3, or 6 ug DNA per 1E6 cells

Molecule	cell death observed [1, 5]	background cell death [2]	inducible apoptosis with 4OHT [2]	background apoptosis / killing [2]	induction of apoptosis with 4OHT [2]	inducibility of apoptosis with 4OHT [1, 6]	further results
B1	significant death						Annexin V+ cells ([1]; HEK293T, 1 ug per 1E6 cells, regardless of the presence of tamoxifen, 18-24 hours): 60-70%
B2		relatively high background levels of cell death					
B3		relatively high background levels of cell death	high inducibility	low background killing	robustly induced at either 200 nM or 1 uM 4OHT		
B4			showed inducible apoptosis			not inducible	
B5			showed inducible apoptosis	low background apoptosis	consistently induced apoptosis	increases the window of induction	inducibility of apoptosis with 4OHT ([1]; HEK293T, 2, 3, or 6 ug DNA per 1E6 cells, listed as C3454): retained activity across cell types; background apoptosis ([1]; HEK293T, 2, 3, or 6 ug DNA per 1E6 cells, ethanol solvent control): does not increase background; inducible killing with 4OHT, Annexin V and PI ([3]; 1 uM 4OHT): greatest inducible killing; background cell death, Annexin V and PI ([3]; ethanol solvent control): low background; background apoptosis, Caspase-3/7 Green Reagent [4]: low background; inducible apoptosis, Caspase-3/7 Green Reagent ([4]; 4OHT): inducible apoptosis is seen
B6	negligible death						
